In PMC10057929, “Improvement of Laccase Production by Thielavia terrestris Co3Bag1. Enhancing the Bio-Catalytic Performance of the Native Thermophilic TtLacA via Immobilization in Copper Alginate Gel Beads” (Journal of Fungi, 2023):

Substrate: CCn1c(=NN=c2sc3cc(S(=O)(=O)O)ccc3n2CC)sc2cc(S(=O)(=O)O)ccc21
Experiment: purified protein
Format: biochemical, Thermothielavioides terrestris
Details: free enzyme, pH 3.0 glycine-HCl, 65 °C, 5 min, 0.05 to 5 mM ABTS

B1: TtLacA (Thermothielavioides terrestris NRRL 8126) (protein)
chain: MGLLRGLLESVSETLELFYTATATLTQESTNGLSLLGTLLARVLPLFLTNNPLPDGFPWGSLSDTNTNPYVDYPRTGVVRYYDFTVSRGIIAPDGYQRDVLLVNGAYPGPLIEANWGDTIVVTVHNNISNPEDGTTIHWHGFLQRETPWADGAPGISQCPIPPGSSYTYEFVASLFGTSWYHAHYSAQYAGGVVGPIVVYGPTHAKYDVDLGPIMLSDWYHREYFDIVKELLSPNASPRVLSDNNLIDGKMNFDCSTVAPGDNTPCTDRAGISKFKFQTGKTHRLRLINSGADGVQRFSIDQHTLTVIAEDFVPVKPYNTTVVTLGVGQRTDVLVTANAGPPDSLFWMRSNLTTCSPARQPNALAAVYYDKADTSATPSSRPWDVPDPGTCANDPLDISEPLYPIPLPKPAITQTMDIELFKNASNVTLWKFNGVSMRTDYNSPVILLANQGNFSYPPEWNVVNYQQTTAIRIIINNKGPGPHPMHLHGHNFYILHEGPGEWDGTIVRPSNPMRRDVELVRGNGHLVIQFDGAPGVWAFHCHIAWHSSGGFLASLLVQPHKVQQMHLPGDVEQNCRAWDLWTKHNVVDQIDSGT
notes: native secreted enzyme purified from culture supernatant, free (not immobilised); 70 kDa by SDS-PAGE; MS/MS peptides QPNALAAVYYDK, YDVDLGPIMLSDWYHR, VLSDNNLIDGK, LINSGADGVQR
Km: 260 µM | kcat: 13.73 s⁻¹
